Results as given in the supplement of paper PMC11246515.
± gives the standard deviation of the averaged measurements.

Assay: total protein half-life in vivo (active degradation + dilution); higher = more stable protein
[1] = E. coli NCM3722 delta-clpP delta-lon delta-hslV, growth: N-lim chemostat, doubling time 6 h
[2] = E. coli NCM3722 delta-clpP, growth: N-lim chemostat, doubling time 6 h
[3] = E. coli NCM3722 delta-hslV, growth: N-lim chemostat, doubling time 6 h
[4] = E. coli NCM3722 delta-lon, growth: N-lim chemostat, doubling time 6 h
[5] = E. coli NCM3722 delta-smpB, growth: N-lim chemostat, doubling time 6 h
[6] = wild type E. coli NCM3722, growth: C-lim chemostat, doubling time 3 h
[7] = wild type E. coli NCM3722, growth: C-lim chemostat, doubling time 6 h
[8] = wild type E. coli NCM3722, growth: C-lim chemostat, doubling time 12 h
[9] = wild type E. coli NCM3722, growth: N-lim chemostat, doubling time 6 h
[10] = wild type E. coli NCM3722, growth: N-lim chemostat, doubling time 12 h
[11] = wild type E. coli NCM3722, growth: P-lim chemostat, doubling time 6 h
[12] = wild type E. coli NCM3722, growth: P-lim chemostat, doubling time 12 h

Sequence: MTENIHKHRILILDFGSQYTQLVARRVRELGVYCELWAWDVTEAQIRDFNPSGIILSGGPESTTEENSPRAPQYVFEAGVPVFGVCYGMQTMAMQLGGHVEASNEREFGYAQVEVVNDSALVRGIEDALTADGKPLLDVWMSHGDKVTAIPSDFITVASTESCPFAIMANEEKRFYGVQFHPEVTHTRQGMRMLERFVRDICQCEALWTPAKIIDDAVARIREQVGDDKVILGLSGGVDSSVTAMLLHRAIGKNLTCVFVDNGLLRLNEAEQVLDMFGDHFGLNIVHVPAEDRFLSALAGENDPEAKRKIIGRVFVEVFDEEALKLEDVKWLAQGTIYPDVIESAASATGKAHVIKSHHNVGGLPKEMKMGLVEPLKELFKDEVRKIGLELGLPYDMLYRHPFPGPGLGVRVLGEVKKEYCDLLRRADAIFIEELRKADLYDKVSQAFTVFLPVRSVGVMGDGRKYDWVVSLRAVETIDFMTAHWAHLPYDFLGRVSNRIINEVNGISRVVYDISGKPPATIEWE
- total protein half-life in vivo [1]: 5.07 ± 0.67 h
- total protein half-life in vivo [2]: 4.31 ± 0.18 h
- total protein half-life in vivo [3]: 4.02 ± 0.45 h
- total protein half-life in vivo [4]: 4.39 ± 0.049 h
- total protein half-life in vivo [5]: 4.28 ± 0.17 h
- total protein half-life in vivo [6]: 3.24 ± 0.23 h
- total protein half-life in vivo [7]: 5.93 ± 0.12 h
- total protein half-life in vivo [8]: 9.65 ± 0.23 h
- total protein half-life in vivo [9]: 4.17 ± 0.46 h
- total protein half-life in vivo [10]: 6.57 ± 0.082 h
- total protein half-life in vivo [11]: 6.09 ± 0.26 h
- total protein half-life in vivo [12]: 12.3 ± 0.98 h

Sequence: MTEQEKTSAVVEETREAVDTTSQPVATEKKSKNNTALILSAVAIAIALAAGIGLYGWGKQQAVNQTATSDALANQLTALQKAQESQKAELEGIIKQQAAQLKQANRQQETLAKQLDEVQQKVATISGSDAKTWLLAQADFLVKLAGRKLWSDQDVTTAAALLKSADASLADMNDPSLITVRRAITDDIASLSAVSQVDYDGIILKLNQLSNQVDNLRLADNDSDGSPMDSDGEELSSSISEWRINLQKSWQNFMDNFITIRRRDDTAVPLLAPNQDIYLRENIRSRLLVAAQAVPRHQEETYRQALENVSTWVRAYYDTDDATTKAFLDEVDQLSQQNISMDLPETLQSQAMLEKLMQTRVRNLLAQPAAGTTEAKPAPAPQADTPAAAPQGE
- total protein half-life in vivo [1]: 5.965 ± 0.022 h
- total protein half-life in vivo [2]: 6.63 ± 1.1 h
- total protein half-life in vivo [3]: 6.31 ± 0.23 h
- total protein half-life in vivo [4]: 6.06 ± 0.28 h
- total protein half-life in vivo [5]: 6.54 ± 0.59 h
- total protein half-life in vivo [6]: 3.15 ± 0.072 h
- total protein half-life in vivo [7]: 5.98 ± 0.23 h
- total protein half-life in vivo [8]: 11.3 ± 1.5 h
- total protein half-life in vivo [9]: 6.09 ± 0.16 h
- total protein half-life in vivo [10]: 13.7 ± 0.83 h
- total protein half-life in vivo [11]: 6.17 ± 0.24 h
- total protein half-life in vivo [12]: 12.8 ± 1.5 h

Sequence: MTEQQISRTQAWLESLRPKTLPLAFAAIIVGTALAWWQGHFDPLVALLALITAGLLQILSNLANDYGDAVKGSDKPDRIGPLRGMQKGVITQQEMKRALIITVVLICLSGLALVAVACHTLADFVGFLILGGLSIIAAITYTVGNRPYGYIGLGDISVLVFFGWLSVMGSWYLQAHTLIPALILPATACGLLATAVLNINNLRDINSDRENGKNTLVVRLGEVNARRYHACLLMGSLVCLALFNLFSLHSLWGWLFLLAAPLLVKQARYVMREMDPVAMRPMLERTVKGALLTNLLFVLGIFLSQWAA
- total protein half-life in vivo [2]: 5.652 ± 0.0067 h
- total protein half-life in vivo [3]: 6.01 h
- total protein half-life in vivo [7]: 6.18 h
- total protein half-life in vivo [8]: 12.6 h

Sequence: MTEQQKLTFTALQQRLDSLMLRDRLRFSRRLHGVKKVKNPDAQQAIFQEMAKEIDQAAGKVLLREAARPEITYPDNLPVSQKKQDILEAIRDHQVVIVAGETGSGKTTQLPKICMELGRGIKGLIGHTQPRRLAARTVANRIAEELKTEPGGCIGYKVRFSDHVSDNTMVKLMTDGILLAEIQQDRLLMQYDTIIIDEAHERSLNIDFLLGYLKELLPRRPDLKIIITSATIDPERFSRHFNNAPIIEVSGRTYPVEVRYRPIVEEADDTERDQLQAIFDAVDELSQESHGDILIFMSGEREIRDTADALNKLNLRHTEILPLYARLSNSEQNRVFQSHSGRRIVLATNVAETSLTVPGIKYVIDPGTARISRYSYRTKVQRLPIEPISQASANQRKGRCGRVSEGICIRLYSEDDFLSRPEFTDPEILRTNLASVILQMTALGLGDIAAFPFVEAPDKRNIQDGVRLLEELGAITTDEQASAYKLTPLGRQLSQLPVDPRLARMVLEAQKHGCVREAMIITSALSIQDPRERPMDKQQASDEKHRRFHDKESDFLAFVNLWNYLGEQQKALSSNAFRRLCRTDYLNYLRVREWQDIYTQLRQVVKELGIPVNSEPAEYREIHIALLTGLLSHIGMKDADKQEYTGARNARFSIFPGSGLFKKPPKWVMVAELVETSRLWGRIAARIDPEWVEPVAQHLIKRTYSEPHWERAQGAVMATEKVTVYGLPIVAARKVNYSQIDPALCRELFIRHALVEGDWQTRHAFFRENLKLRAEVEELEHKSRRRDILVDDETLFEFYDQRISHDVISARHFDSWWKKVSRETPDLLNFEKSMLIKEGAEKISKLDYPNFWHQGNLKLRLSYQFEPGADADGVTVHIPLPLLNQVEESGFEWQIPGLRRELVIALIKSLPKPVRRNFVPAPNYAEAFLGRVKPLELPLLDSLERELRRMTGVTVDREDWHWDQVPDHLKITFRVVDDKNKKLKEGRSLQDLKDALKGKVQETLSAVADDGIEQSGLHIWSFGQLPESYEQKRGNYKVKAWPALVDERDSVAIKLFDNPLEQKQAMWNGLRRLLLLNIPSPIKYLHEKLPNKAKLGLYFNPYGKVLELIDDCISCGVDKLIDANGGPVWTEEGFAALHEKVRAELNDTVVDIAKQVEQILTAVFNINKRLKGRVDMTMALGLSDIKAQMGGLVYRGFVTGNGFKRLGDTLRYLQAIEKRLEKLAVDPHRDRAQMLKVENVQQAWQQWINKLPPARREDEDVKEIRWMIEELRVSYFAQQLGTPYPISDKRILQAMEQISG
- total protein half-life in vivo [1]: 6.34 ± 0.51 h
- total protein half-life in vivo [2]: 6.5 ± 1.2 h
- total protein half-life in vivo [3]: 5.99 ± 0.13 h
- total protein half-life in vivo [4]: 5.89 ± 0.89 h
- total protein half-life in vivo [5]: 5.46 ± 0.8 h
- total protein half-life in vivo [6]: 3.53 ± 0.13 h
- total protein half-life in vivo [7]: 6.34 ± 0.23 h
- total protein half-life in vivo [8]: 12.8 ± 1.3 h
- total protein half-life in vivo [9]: 5.66 ± 0.1 h
- total protein half-life in vivo [10]: 11.2 ± 0.78 h
- total protein half-life in vivo [11]: 5.71 ± 0.12 h
- total protein half-life in vivo [12]: 11.3 ± 0.18 h

Sequence: MTESTSRRPAYARLLDRAVRILAVRDHSEQELRRKLAAPIMGKNGPEEIDATAEDYERVIAWCHEHGYLDDSRFVARFIASRSRKGYGPARIRQELNQKGISREATEKAMRECDIDWCALARDQATRKYGEPLPTVFSEKVKIQRFLLYRGYLMEDIQEIWRNFAD
- total protein half-life in vivo [1]: 5.54 ± 0.24 h
- total protein half-life in vivo [2]: 3.94 h
- total protein half-life in vivo [7]: 4.03 h
- total protein half-life in vivo [10]: 5.32 h
- total protein half-life in vivo [11]: 7.34 h
- total protein half-life in vivo [12]: 8.52 h

Sequence: MTFSLFGDKFTRHSGITLLMEDLNDGLRTPGAIMLGGGNPAQIPEMQDYFQTLLTDMLESGKATDALCNYDGPQGKTELLTLLAGMLREKLGWDIEPQNIALTNGSQSAFFYLFNLFAGRRADGRVKKVLFPLAPEYIGYADAGLEEDLFVSARPNIELLPEGQFKYHVDFEHLHIGEETGMICVSRPTNPTGNVITDEELLKLDALANQHGIPLVIDNAYGVPFPGIIFSEARPLWNPNIVLCMSLSKLGLPGSRCGIIIANEKIITAITNMNGIISLAPGGIGPAMMCEMIKRNDLLRLSETVIKPFYYQRVQETIAIIRRYLPENRCLIHKPEGAIFLWLWFKDLPITTKQLYQRLKARGVLMVPGHNFFPGLDKPWPHTHQCMRMNYVPEPEKIEAGVKILAEEIERAWAESH
- total protein half-life in vivo [1]: 3.05 ± 0.33 h
- total protein half-life in vivo [2]: 2.32 ± 0.096 h
- total protein half-life in vivo [3]: 2.53 ± 0.12 h
- total protein half-life in vivo [4]: 2.72 ± 0.059 h
- total protein half-life in vivo [5]: 2.76 ± 0.11 h
- total protein half-life in vivo [7]: 4.26 ± 0.073 h
- total protein half-life in vivo [8]: 7.25 ± 0.17 h
- total protein half-life in vivo [9]: 2.46 ± 0.28 h
- total protein half-life in vivo [10]: 3.33 ± 0.17 h
- total protein half-life in vivo [11]: 4.994 ± 0.0076 h
- total protein half-life in vivo [12]: 9.24 ± 0.47 h
